This note sets out measurements from patent publication US20240392262A1, “TRANSPOSASE AND USES THEREOF” (Poseida Therapeutics, Inc., published 2024).

Data set [1] has as its target T1, GFP1 Right TALEN NT-betaN (synthetic construct).
T1 chain: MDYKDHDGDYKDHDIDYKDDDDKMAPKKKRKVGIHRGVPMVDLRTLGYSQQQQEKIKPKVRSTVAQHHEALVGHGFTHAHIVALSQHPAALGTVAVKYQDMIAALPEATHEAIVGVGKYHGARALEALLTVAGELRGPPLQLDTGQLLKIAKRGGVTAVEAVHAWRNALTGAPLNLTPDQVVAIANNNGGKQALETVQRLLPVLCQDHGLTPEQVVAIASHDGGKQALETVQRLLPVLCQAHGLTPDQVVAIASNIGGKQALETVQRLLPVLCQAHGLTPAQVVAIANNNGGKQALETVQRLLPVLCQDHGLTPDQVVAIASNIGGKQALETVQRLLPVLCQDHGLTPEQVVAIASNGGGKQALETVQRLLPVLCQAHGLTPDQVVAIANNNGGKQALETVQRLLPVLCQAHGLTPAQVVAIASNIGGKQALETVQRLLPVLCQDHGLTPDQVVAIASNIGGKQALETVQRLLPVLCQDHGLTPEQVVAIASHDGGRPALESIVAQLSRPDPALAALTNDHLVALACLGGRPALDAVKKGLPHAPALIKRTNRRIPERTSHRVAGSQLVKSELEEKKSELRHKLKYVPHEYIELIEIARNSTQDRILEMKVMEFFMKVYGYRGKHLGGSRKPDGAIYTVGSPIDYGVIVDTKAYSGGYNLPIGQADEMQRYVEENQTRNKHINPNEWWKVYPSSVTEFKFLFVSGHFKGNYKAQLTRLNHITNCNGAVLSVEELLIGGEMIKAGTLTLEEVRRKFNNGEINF
Put plainly: cell_activity; SSA. As to conditions: tags: 3xFlag, SV40 NLS, FokI fusion; chain copies: 2. On the procedure:
(§1) The TALEN NT-G and NT-ON designs were tested using the single strand annealing reporter (Example 17). The target site corresponding to the GFP1 Right TALEN (SEQ ID NO: 288) was modified to replace T 5′ of the target sites with either an A, a C, or a G to create SEQ ID NOs: 403-405). A transfection mixture containing 90 ng of each TALEN, 10 ng of the corresponding reporter and 1.5p of Transit-2020 transfection reagent in a total volume of 20 μl of Serum Free OptiMem medium were assembled. A TALEN or a reporter were transfected alone as negative controls. An aliquot of 30,000 HEK293T cells in 180 μl of DMEM medium supplemented with 10% FBS was added and the transfection mixture was plated in 96 well plates and incubated for one day at 37° C. at 5% CO2. The following day, a lysis buffer was added to the cells and the lysate was transferred to a white 96 well plate. A buffer containing substrate for Firefly luciferase was mixed with the cells and luciferase luminescence was detected using a plate reader.

The target of a further data set is T2, GFP1 Right TALEN NT-G (synthetic construct).
T2 chain: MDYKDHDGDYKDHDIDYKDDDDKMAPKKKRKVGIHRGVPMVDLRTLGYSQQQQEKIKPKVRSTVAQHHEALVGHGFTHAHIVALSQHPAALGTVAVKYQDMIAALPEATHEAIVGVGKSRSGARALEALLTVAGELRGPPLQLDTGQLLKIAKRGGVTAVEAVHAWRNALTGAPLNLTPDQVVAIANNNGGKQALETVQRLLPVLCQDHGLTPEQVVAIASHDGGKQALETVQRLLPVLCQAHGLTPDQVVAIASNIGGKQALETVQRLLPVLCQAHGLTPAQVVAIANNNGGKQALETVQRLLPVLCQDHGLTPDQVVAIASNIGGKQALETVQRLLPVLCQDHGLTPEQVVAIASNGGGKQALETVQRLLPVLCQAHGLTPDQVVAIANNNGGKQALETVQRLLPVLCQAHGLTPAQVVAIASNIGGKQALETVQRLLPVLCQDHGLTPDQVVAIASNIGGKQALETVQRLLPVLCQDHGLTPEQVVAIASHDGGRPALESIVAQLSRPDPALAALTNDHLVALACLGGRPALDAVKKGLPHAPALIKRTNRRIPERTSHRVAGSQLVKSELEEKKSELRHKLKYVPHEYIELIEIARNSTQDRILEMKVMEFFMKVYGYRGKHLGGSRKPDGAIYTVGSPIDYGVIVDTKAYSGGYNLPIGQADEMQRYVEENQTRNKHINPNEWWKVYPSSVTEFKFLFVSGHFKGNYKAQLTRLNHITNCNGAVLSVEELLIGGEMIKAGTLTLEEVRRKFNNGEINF
The experiment in a line: cell_activity; SSA. The following applies: tags: 3xFlag, SV40 NLS, FokI fusion; chain copies: 2. On the procedure: as §1

B1: GFP1 R SSA site 5'A (dsDNA)
DNA 1: GGAGCAGATGAACGCAAGCTGACCCTGAAGTTCATCTGCTTT
DNA 2: AAAGCAGATGAACTTCAGGGTCAGCTTGCGTTCATCTGCTCC
For B1, the activity amounted to 1.56e+06 RLU in data set [1] and 1.14e+06 RLU in the data set with GFP1 Right TALEN NT-G.

B2: GFP1 R+R SSA site (dsDNA)
DNA 1: GGTGCAGATGAACGCAAGCTGACCCTGAAGTTCATCTGCATT
DNA 2: AATGCAGATGAACTTCAGGGTCAGCTTGCGTTCATCTGCACC
On to B2, for which the figures for the activity (in data set [1]; with GFP1 Right TALEN NT-G) were 1.45e+06 RLU and 1.21e+06 RLU, respectively.
